Experiments:
[1] = biological target: soluble LDL receptor ectodomain (UniProt P01130); experiment: ELISA
[2] = biological target: soluble LDL receptor ectodomain (UniProt P01130); experiment: BLI

Sequence of soluble LDL receptor ectodomain (P01130 22-788): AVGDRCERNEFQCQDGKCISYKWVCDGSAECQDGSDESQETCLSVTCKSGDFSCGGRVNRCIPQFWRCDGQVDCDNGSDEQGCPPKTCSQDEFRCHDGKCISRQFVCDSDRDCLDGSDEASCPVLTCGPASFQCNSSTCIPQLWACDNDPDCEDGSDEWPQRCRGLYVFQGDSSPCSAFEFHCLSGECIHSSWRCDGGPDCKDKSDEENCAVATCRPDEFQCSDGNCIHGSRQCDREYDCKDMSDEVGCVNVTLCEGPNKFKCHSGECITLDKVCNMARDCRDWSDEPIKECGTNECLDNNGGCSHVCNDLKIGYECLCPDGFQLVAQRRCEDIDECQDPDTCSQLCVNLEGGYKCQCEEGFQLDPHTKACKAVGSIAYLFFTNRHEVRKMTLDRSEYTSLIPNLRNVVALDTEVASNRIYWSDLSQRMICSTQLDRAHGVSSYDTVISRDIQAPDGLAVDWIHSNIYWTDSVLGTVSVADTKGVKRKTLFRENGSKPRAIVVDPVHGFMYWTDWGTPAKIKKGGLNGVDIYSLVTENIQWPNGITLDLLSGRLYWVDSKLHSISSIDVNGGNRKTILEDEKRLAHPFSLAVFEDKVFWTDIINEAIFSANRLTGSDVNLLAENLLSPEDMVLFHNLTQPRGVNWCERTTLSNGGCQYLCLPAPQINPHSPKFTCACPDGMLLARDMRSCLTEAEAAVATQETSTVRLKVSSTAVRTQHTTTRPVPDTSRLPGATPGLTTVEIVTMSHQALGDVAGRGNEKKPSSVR

Row | affinity loss against intact PCSK9 (IC50 intact/IC50 cleaved), fold [1] [fold] | Kd [2] [µM] | koff [2] [s⁻¹] | kon [2] [M⁻¹ s⁻¹] | Substance
1 | 1.1 | 0.356 | 0.0138 | 39000 | purified furin-cleaved PCSK9 (from UniProt Q8NBP7) (natural protein)
2 | 1.4 | 0.268 | 0.00858 | 32000 | purified hepsin-cleaved PCSK9 (from UniProt Q8NBP7) (natural protein)

Source: article PMC3527935
